Legend:
[1] = molecular target: T1, ParA (Caulobacter vibrioides, UniProt B8GW31, R195E); experiment: size exclusion chromatography (ATP-dependent dimerization); format: binding; conditions: 2.5 mM Mg-ATP, pH 7.5, 150 mM potassium glutamate; mutant does not bind DNA
T1 construct: full length, recombinant from E. coli BL21(DE3), pET24HT-ParA, His6 tag removed by TEV protease

[2] = molecular target: Caulobacter crescentus ParA (wild type) (C. crescentus); experiment: SEC; +ATP: ParA freed of ATP (EDTA, buffer exchange), then mixed with 2.5 mM Mg-ATP, 10 min at room temperature; 50 µl at approximately 50 µM on Superdex 75 10/300 GL in 25 mM Hepes/KOH pH 7.5, 150 mM KGlu, 5 mM MgSO4, 2 mM Mg-ATP, 0.1 mM EDTA, 1 mM DTT; monomer to dimer
[3] = molecular target: Caulobacter crescentus ParA R195E (DNA-binding deficient mutant) (C. crescentus); experiment: as above
[4] = molecular target: Caulobacter crescentus ParA (wild type) (C. crescentus)
[5] = molecular target: Caulobacter crescentus ParB-His6 (wild type) (C. crescentus); experiment: SEC-MALS; SEC-UV/LS/RI; purified His6-ParB on Superose 6 10/30 HR in 100 mM HEPES pH 7.4, 150 mM NaCl, 1 mM DTT, 0.3 ml/min; monomer to dimer
[6] = molecular target: Caulobacter crescentus ParA (wild type) (C. crescentus); remark: listed apart in the source
[7] = substrate: Nc1ncnc2c1ncn2[C@@H]1O[C@H](COP(=O)(O)OP(=O)(O)OP(=O)(O)O)[C@@H](O)[C@H]1O; experiment: NADH-coupled ATPase assay (pyruvate kinase/lactate dehydrogenase); format: biochemical, Caulobacter vibrioides; conditions: 10 µM ParA, 1.5 mg/ml salmon sperm DNA, no ParB, 10 mM MgSO4, 150 mM potassium glutamate, pH 7.4, 30 °C
Text: NADH-coupled ATPase assay (pyruvate kinase/lactate dehydrogenase) on ParA | ATPase activity was dependent on the concentration of ATP (Figure 1E), resulting in a KM

T1 sequence (B8GW31 whole entry R195E): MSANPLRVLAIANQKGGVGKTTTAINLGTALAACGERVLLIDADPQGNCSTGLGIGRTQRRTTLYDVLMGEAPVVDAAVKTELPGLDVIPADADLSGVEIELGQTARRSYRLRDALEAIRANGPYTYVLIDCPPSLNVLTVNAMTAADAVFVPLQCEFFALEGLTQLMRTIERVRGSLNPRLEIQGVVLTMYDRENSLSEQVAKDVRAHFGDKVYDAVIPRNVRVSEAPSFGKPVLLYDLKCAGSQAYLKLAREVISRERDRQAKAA

For `Nc1ncnc2c1ncn2[C@@H]1O[C@H](COP(=O)(O)OP(=O)(O)OP(=O)(O)O)[C@@H](O)[C@H]1O` [ATP], the “size exclusion chromatography (ATP-dependent dimerization)” value [1] was “ParAR195E mutant (Figure 1C), which can still dimerize upon ATP binding (Figure 1A)”.

With “Caulobacter crescentus ParA (wild type) (enzyme)” the stoichiometry N [2] was 2.

“Caulobacter crescentus ParA R195E (DNA-binding deficient mutant) (enzyme)” was tested, and the stoichiometry N [3] was 2.

Molecule “Caulobacter crescentus ParB-His6 (wild type) (natural protein)” has a ParA (3 µM) ATPase activity against ParB concentration in the presence of DNA, Michaelis–Menten fit: apparent K (ParB) [4] of 80 µM, a stoichiometry N [5] of 2 and a ParA ATPase activity (NADH-coupled assay) with DNA, increase on adding ParB (60 µM) [6] of 10 fold.

B1: ParA (Caulobacter vibrioides NA1000) (protein)
chain: MSANPLRVLAIANQKGGVGKTTTAINLGTALAACGERVLLIDADPQGNCSTGLGIGRTQRRTTLYDVLMGEAPVVDAAVKTELPGLDVIPADADLSGVEIELGQTARRSYRLRDALEAIRANGPYTYVLIDCPPSLNVLTVNAMTAADAVFVPLQCEFFALEGLTQLMRTIERVRGSLNPRLEIQGVVLTMYDRRNSLSEQVAKDVRAHFGDKVYDAVIPRNVRVSEAPSFGKPVLLYDLKCAGSQAYLKLAREVISRERDRQAKAA
notes: full length, recombinant from E. coli BL21(DE3), pET24HT-ParA, His6 tag removed by TEV protease
Molecule B1 has a Km [7] of 150 µM and a kcat [7] of 0.00164 s⁻¹.

— publication PMC4067530, “Evidence for a DNA-relay mechanism in ParABS-mediated chromosome segregation” (eLife, 2014)
